Experimental data published in publication PMC8809517, “Cofactor-independent RNA editing by a synthetic S-type PPR protein”.

T1: GFP-9S library array, motif 4 ND N98G;D124M (synthetic construct, N98G;D124M)
T1 chain: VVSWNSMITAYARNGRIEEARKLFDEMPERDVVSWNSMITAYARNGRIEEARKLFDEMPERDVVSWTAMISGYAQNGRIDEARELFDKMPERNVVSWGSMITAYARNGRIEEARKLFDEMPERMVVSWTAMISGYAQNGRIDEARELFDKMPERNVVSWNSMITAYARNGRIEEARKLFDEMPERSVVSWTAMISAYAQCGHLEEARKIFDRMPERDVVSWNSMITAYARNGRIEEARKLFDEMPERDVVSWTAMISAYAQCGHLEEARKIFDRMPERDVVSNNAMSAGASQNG

T2: GFP-9S library array, motif 4 ND N98D;D124A (synthetic construct, N98D;D124A)
T2 chain: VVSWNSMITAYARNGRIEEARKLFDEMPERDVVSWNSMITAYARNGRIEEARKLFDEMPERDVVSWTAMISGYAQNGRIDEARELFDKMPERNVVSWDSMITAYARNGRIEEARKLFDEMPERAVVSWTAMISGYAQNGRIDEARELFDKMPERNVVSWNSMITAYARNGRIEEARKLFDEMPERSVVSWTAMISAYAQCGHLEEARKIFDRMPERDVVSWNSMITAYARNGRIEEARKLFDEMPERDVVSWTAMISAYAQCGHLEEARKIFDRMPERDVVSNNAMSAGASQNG

T3: GFP-9S library array, motif 4 ND N98G;D124A (synthetic construct, N98G;D124A)
T3 chain: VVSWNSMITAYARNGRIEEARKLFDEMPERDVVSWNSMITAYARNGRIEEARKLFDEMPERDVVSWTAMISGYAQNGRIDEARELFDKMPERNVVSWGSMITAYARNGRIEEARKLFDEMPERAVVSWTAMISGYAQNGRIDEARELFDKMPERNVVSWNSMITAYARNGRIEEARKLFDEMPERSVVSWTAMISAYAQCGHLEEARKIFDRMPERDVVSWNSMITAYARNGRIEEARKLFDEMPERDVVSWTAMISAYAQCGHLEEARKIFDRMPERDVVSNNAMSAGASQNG

T4: GFP-9S library array, motif 4 ND N98M (synthetic construct, N98M)
T4 chain: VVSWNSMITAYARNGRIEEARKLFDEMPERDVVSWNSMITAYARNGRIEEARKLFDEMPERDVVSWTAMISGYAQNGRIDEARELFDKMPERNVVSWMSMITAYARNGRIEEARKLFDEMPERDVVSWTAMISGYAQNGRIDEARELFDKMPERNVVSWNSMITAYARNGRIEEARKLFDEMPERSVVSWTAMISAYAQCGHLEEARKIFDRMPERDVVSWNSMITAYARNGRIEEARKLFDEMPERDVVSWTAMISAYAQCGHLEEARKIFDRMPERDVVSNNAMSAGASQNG

T5: GFP-9S library array, motif 4 ND N98R;D124P (synthetic construct, N98R;D124P)
T5 chain: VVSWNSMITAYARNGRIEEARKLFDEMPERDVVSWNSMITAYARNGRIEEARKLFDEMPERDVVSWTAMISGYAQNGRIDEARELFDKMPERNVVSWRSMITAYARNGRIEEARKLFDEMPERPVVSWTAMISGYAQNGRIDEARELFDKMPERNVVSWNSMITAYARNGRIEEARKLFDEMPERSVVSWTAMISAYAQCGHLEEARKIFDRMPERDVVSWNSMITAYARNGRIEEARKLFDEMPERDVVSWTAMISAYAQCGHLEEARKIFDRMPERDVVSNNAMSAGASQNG


Assays:
Assay in all cases: high-throughput RNA pulldown from lysate on Ni-NTA beads; HRP: 50 mM Tris pH 8, 150 mM NaCl, 1 mM beta-mercaptoethanol, 50 ug/ml BSA, 3 ug/ml yeast RNA, 0.5% heparin; ITC and FP: Tris pH 8, 200 mM KCl, 5% glycerol; MST: 50 mM Tris pH 8, 200 mM NaCl, 1 mM DTT, BSA, heparin, 0.05% Tween 20
Details in all cases: tags: N-terminal His-eGFP
[1] = molecular target: T1, GFP-9S library array, motif 4 ND …
[2] = molecular target: T2, GFP-9S library array, motif 4 ND …
[3] = molecular target: T3, GFP-9S library array, motif 4 ND …
[4] = molecular target: T4, GFP-9S library array, motif 4 ND N98M
[5] = molecular target: T5, GFP-9S library array, motif 4 ND …

Binder | Kd ([1]; label: 5' Cy5) | Kd ([2]; label: 5' Cy5) | Kd ([3]; label: 5' Cy5) | Kd ([4]; label: 5' Cy5) | Kd ([5]; label: 5' Cy5) | Kd ([1]; label: 5' IRDye 800CW) | Kd ([2]; label: 5' IRDye 800CW) | Kd ([3]; label: 5' IRDye 800CW) | Kd ([4]; label: 5' IRDye 800CW) | Kd ([5]; label: 5' IRDye 800CW)
AUUACACGUGA (ssRNA) [Cy5-rpoA] | 57.8 nM | 103 nM | 124 nM | 143 nM | 143 nM | – | – | – | – | –
AUUAUACGUGA (ssRNA) [IR-rpoA-U] | – | – | – | – | – | 149 nM | 174 nM | 175 nM | 129 nM | 163 nM
AUUAAACGUGA (ssRNA) [IR-rpoA-A] | – | – | – | – | – | 94.3 nM | 233 nM | 133 nM | 296 nM | 335 nM
AUUAGACGUGA (ssRNA) [Cy5-rpoA-G] | 66 nM | 114 nM | 101 nM | 43.1 nM | 151 nM | – | – | – | – | –
